This test has as its target Biotin carboxylase AccC (E. coli) (UniProt P24182). As to the kind of experiment: SEC. A general note: Size exclusion chromatography separates by hydrodynamic size, large species first.

In general, stoichiometry N refers to the number of molecules, sites or subunits per partner or assembly.

Turning to “Biotin-carboxy carrier protein AccB (from UniProt P0ABD8 1-156) (natural protein)”, the stoichiometry N is 1.

The values above are taken from paper PMC11160672.
